One assay has as its system BJ and HaCaT cells. The assay is described as follows: Transwell migration assay. It is filed as cell-based, human. The conditions noted are these: sAgrin 10 μg/ml as chemoattractant. As to the method:
FIG. 5 are assays showing effects of Agrin knockdown on 2D migration of keratinocytes and dermal fibroblasts. (a) RT-PCR analysis for Agrin gene expression in BJ and HaCaT cells treated with either control or Agrin siRNA. Data presented as mean+/−s.d. These knockdown cells were subsequently used for transwell migration assays. Migration was analyzed for a batch of Agrin depleted cells in response to sAgrin (10 μg/ml) in the bottom chambers as a chemoattractant (third panels). Migrating were quantified using ImageJ and represented as mean+/−s.d. (n=3, Students ‘t’ test, p=0.0004, 0.0003, and 0.0005, respectively). Scale bar: 20 μm. (b) Control, Agrin depleted, and Agrin knockdown BJ or primary mouse dermal fibroblasts (DF) cells pre-treated with 10 μg/ml sAgrin for 18 h were subjected to scratch wound assays. Representative bright-field images showing relative migration are presented at the indicated time-points. The mean non-migrated area+/−s.d. was quantified using ImageJ (n=3, Students ‘t’ test, *p<0.05, **p<0.004, ***p<0.0005, ****p=0.000002, ****p<0.000001, respectively). Scale bar: 20 μm. A Western blot verifying the knockdown of Agrin in DF is also shown with GAPDH as loading control. […] Results are quantified as in panel (b) (n=3, Students ‘t’ test, ****p<0.000001, **p<0.005, *p<0.05, respectively, all other p values are represented in the panels). […]

The next assay concerns MMP12. The assay is described as follows: MMP12 levels in HaCaT cells (Western blot / immunostaining). It counts as cell-based, human. On the procedure: Tissue culture plates were coated with Col-T-gel (Fischer Scientific) of stiffness ranging from 0.8 KPa (soft) to 30 KPa (stiff) as per manufacturer recommendations and allowed to solidify for 40 min at 37° C. inside tissue culture incubators. Some experiments were performed with cells seeded on the poly-hydrogel plates of defined stiffness: 0.2 kPa and 16 kPa soft and hard polyhydrogels, respectively (CytoSoft, Advanced Biomatrix, Inc.,). The determination of stiffness of silicone substrates were done by the manufacturer as per previously published protocols. For certain experiments, indicated amounts of sAgrin was incorporated into the 0.8 KPa collagen gels before gelation process. Upon gelation, trypsinized cells or excised mouse skin explants were plated onto the gels of different stiffness either alone or containing sAgrin. The cells/tissues were incubated under standard culture condition with 500 μl recommended culture medium for the indicated days. The crossbow shaped micropatterns with fibronectin coated islands were generated by microlithography on a 19.5×19.5 mm coverslide from Cytoo, Inc., France. The micropatterns had surface areas of 800μ^2 or 1600μ^2, respectively. Fifty thousand cells after initial siRNA treatment was placed on the micropatterns for 4-6 h before processing them for immunofluorescence. For some experiments, 10 μg/ml sAgrin was added on the slides 18 h prior to the addition of cells.
Indicated cells post-manipulation were washed twice with cold Phosphate buffered saline (PBS) and lysed with cold 1% NP-40 lysis buffer supplemented with 1× protease inhibitor cocktail (Roche Applied Biosciences) for 15 mins at 4° C. The cell lysate was centrifuged at 13,000 rpm for 15 min. This was followed by protein estimation using Bradford reagent. Subsequently, […] of total protein was mixed with an equal volume of 2× Laemmli sample buffer and heated at 95° C. for 5 mins. This was followed by resolution with SDS-PAGE gel. The resolved proteins were transferred onto nitrocellulose membrane and blocked in 5% skimmed milk reconstituted in 1×PBS containing 0.1% Tween-20, and probed overnight with the respective primary antibody. The membrane was then washed with 1×PBS supplemented with 0.1% Tween-20: three times at 15 min intervals. This was followed by 1 h incubation in conjugated horseradish peroxidase HRP secondary antibody (Santa Cruz Biotechnology). […] The density of the various bands was quantified using the Image-J software.
Cells were cultured on eight-well chamber slides or coverslips over-night. […] The images were processed and analyzed by Zen blue software. […]
In general terms: Immunoblotting shows a protein as a band on a membrane.

B1: sAgrin: C-terminus recombinant Agrin fragment containing 8 amino acid 'Z8' insert and LG3 domain (SEQ ID NO: 7), His-tagged, expressed in E. coli (protein)
chain: DTLAFDGRTFVEYLNAVTESELANEIPVEKALQSNHFELSLRTEATQGLVLWSGKATERADYVALAIVDGHLQLSYNLGSQPVVLRSTVPVNTNRWLRVVAHREQREGSLQVGNEAPVTGSSPLGATQLDTDGALWLGGLPELPVGPALPKAYGTGFVGCLRDVVVGRHPLHLLEDAVTKPELRPCPTP
modifications: His tag
With B1, the “trans-well migration (rescue of Agrin knockdown)” value in the assay with BJ and HaCaT cells was “in part, rescued”. In addition, the “MMP12 levels on soft matrix, exposure time series” value with MMP12 (10 μg/ml sAgrin) was “increased MMP12 levels”. Moreover, the “MMP12 protein levels on soft substrates, concentration series” value with MMP12 (0.8 kPa, increasing sAgrin, 18 h) is reported as “strongly stabilized MMP12 protein levels in a dose-dependent fashion”. Moreover, the “MMP12 and Agrin at the leading migrating front” value with MMP12 (6 h post-wound scratch, sAgrin 10 μg/ml) is “further heightened”. For the same molecule, in the assay with MMP12 (increasing sAgrin, 18 h, dose-dependent), the “MMP12 levels in Agrin knockdown cells on stiff ECM” value is reported as “restored their MMP12 levels”.

Values taken from patent US20230257435A1, “Wound Healing Composition and Uses Thereof” (AGENCY FOR SCIENCE, TECHNOLOGY AND RESEARCH, priority 2020, published 2023).
